Laboratory results from publication PMC6156764.

biological target: endogenous TEA domain protein (TEAD), detected with a pan-TEAD antibody, P28347; test: co-immunoprecipitation (α-Flag) with western blot quantification; settings: chain shown with the change; lysates of transiently transfected HeLa cells; n = 3; parent: est. 1.0; read off a plot
Sequence (P28347 whole entry, the tested form may be a part): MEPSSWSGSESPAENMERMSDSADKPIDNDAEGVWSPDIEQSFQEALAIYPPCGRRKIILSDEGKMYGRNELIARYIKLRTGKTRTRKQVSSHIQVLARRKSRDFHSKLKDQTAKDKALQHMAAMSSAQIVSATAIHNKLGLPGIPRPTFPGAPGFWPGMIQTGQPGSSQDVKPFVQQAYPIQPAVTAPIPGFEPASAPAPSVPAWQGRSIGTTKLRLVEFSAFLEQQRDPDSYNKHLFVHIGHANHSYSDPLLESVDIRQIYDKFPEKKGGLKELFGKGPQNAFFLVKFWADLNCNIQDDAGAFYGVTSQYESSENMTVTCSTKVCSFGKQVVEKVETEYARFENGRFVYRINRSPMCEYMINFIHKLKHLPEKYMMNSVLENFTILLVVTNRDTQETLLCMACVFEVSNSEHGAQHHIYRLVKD

Binder | ratio to parent
Flag-tagged wild-type GBP-1 fragment α7–13 (residues 311–582), P32455 K397A; Q398A; N399A; Q400A; E401A; S403A (protein) CMENAVLALAQIENSAAVQKAIAHYEQQMGQKVQLPTETLQELLDLHRDSEREAIEVFIRSSFKDVDHLFQKELAAQLEKKRDDFCAAAAAAASDRCSALLQVIFSPLEEEVKAGIYSKPGGYRLFVQKLQDLKKKYYEEPRKGIQAEEILQTYLKSKESMTDAILQTDQTLTEKEKEIEVERVKAESAQASAKMLQEMQRKNEQMMEQKERSYQEHLKQLTEKMENDRVQLLKEQERTLALKLQEQEQLLKEGFQKESRIMKNEIQDLQTK | 1.7
Flag-tagged wild-type GBP-1 fragment α7–13 (residues 311–582), P32455 S404A; D405A; R406A; C407A; S408A; L410A (protein) CMENAVLALAQIENSAAVQKAIAHYEQQMGQKVQLPTETLQELLDLHRDSEREAIEVFIRSSFKDVDHLFQKELAAQLEKKRDDFCKQNQEASAAAAAAALQVIFSPLEEEVKAGIYSKPGGYRLFVQKLQDLKKKYYEEPRKGIQAEEILQTYLKSKESMTDAILQTDQTLTEKEKEIEVERVKAESAQASAKMLQEMQRKNEQMMEQKERSYQEHLKQLTEKMENDRVQLLKEQERTLALKLQEQEQLLKEGFQKESRIMKNEIQDLQTK | 1.1
Flag-tagged wild-type GBP-1 fragment α7–13 (residues 311–582), P32455 L411A; Q412A; V413A; I414A; F415A; S416A; P417A (protein) CMENAVLALAQIENSAAVQKAIAHYEQQMGQKVQLPTETLQELLDLHRDSEREAIEVFIRSSFKDVDHLFQKELAAQLEKKRDDFCKQNQEASSDRCSALAAAAAAALEEEVKAGIYSKPGGYRLFVQKLQDLKKKYYEEPRKGIQAEEILQTYLKSKESMTDAILQTDQTLTEKEKEIEVERVKAESAQASAKMLQEMQRKNEQMMEQKERSYQEHLKQLTEKMENDRVQLLKEQERTLALKLQEQEQLLKEGFQKESRIMKNEIQDLQTK | 1.2
Flag-tagged wild-type GBP-1 fragment α7–13 (residues 311–582), P32455 E383A; L384A; Q387A; L388A; E389A (protein) CMENAVLALAQIENSAAVQKAIAHYEQQMGQKVQLPTETLQELLDLHRDSEREAIEVFIRSSFKDVDHLFQKAAAAAAAKKRDDFCKQNQEASSDRCSALLQVIFSPLEEEVKAGIYSKPGGYRLFVQKLQDLKKKYYEEPRKGIQAEEILQTYLKSKESMTDAILQTDQTLTEKEKEIEVERVKAESAQASAKMLQEMQRKNEQMMEQKERSYQEHLKQLTEKMENDRVQLLKEQERTLALKLQEQEQLLKEGFQKESRIMKNEIQDLQTK | 1.6
Flag-tagged wild-type GBP-1 fragment α7–13 (residues 311–582), P32455 L418A; E419A; E420A; E421A; V422A; K423A (protein) CMENAVLALAQIENSAAVQKAIAHYEQQMGQKVQLPTETLQELLDLHRDSEREAIEVFIRSSFKDVDHLFQKELAAQLEKKRDDFCKQNQEASSDRCSALLQVIFSPAAAAAAAGIYSKPGGYRLFVQKLQDLKKKYYEEPRKGIQAEEILQTYLKSKESMTDAILQTDQTLTEKEKEIEVERVKAESAQASAKMLQEMQRKNEQMMEQKERSYQEHLKQLTEKMENDRVQLLKEQERTLALKLQEQEQLLKEGFQKESRIMKNEIQDLQTK | 0.95

The next lines start with the values.

ratio to parent | Binder
1.6 | Flag-tagged wild-type GBP-1 fragment α7–13 (residues 311–582), P32455 K390A; K391A; R392A; D393A; D394A; F395A; C396A (protein) CMENAVLALAQIENSAAVQKAIAHYEQQMGQKVQLPTETLQELLDLHRDSEREAIEVFIRSSFKDVDHLFQKELAAQLEAAAAAAAKQNQEASSDRCSALLQVIFSPLEEEVKAGIYSKPGGYRLFVQKLQDLKKKYYEEPRKGIQAEEILQTYLKSKESMTDAILQTDQTLTEKEKEIEVERVKAESAQASAKMLQEMQRKNEQMMEQKERSYQEHLKQLTEKMENDRVQLLKEQERTLALKLQEQEQLLKEGFQKESRIMKNEIQDLQTK
0.37 | Flag-tagged wild-type GBP-1 fragment α7–13 (residues 311–582), P32455 V376A; D377A; H378A; L379A; F380A; Q381A; K382A (protein) CMENAVLALAQIENSAAVQKAIAHYEQQMGQKVQLPTETLQELLDLHRDSEREAIEVFIRSSFKDAAAAAAAELAAQLEKKRDDFCKQNQEASSDRCSALLQVIFSPLEEEVKAGIYSKPGGYRLFVQKLQDLKKKYYEEPRKGIQAEEILQTYLKSKESMTDAILQTDQTLTEKEKEIEVERVKAESAQASAKMLQEMQRKNEQMMEQKERSYQEHLKQLTEKMENDRVQLLKEQERTLALKLQEQEQLLKEGFQKESRIMKNEIQDLQTK
